Assay in all cases: purified protein
Data set [1] relates to CC(=O)Oc1ccc([N+](=O)[O-])cc1. The data set is classed as biochemical, Hevea brasiliensis. The following applies: BES pH 7.2, 25 °C, about 7 vol% acetonitrile.
Data set [2] relates to CC(C)(O)C#N. The data set is classed as biochemical, Hevea brasiliensis. The conditions noted are these: pH 5 citrate buffer.
In data set [3] the test system is N#CC(O)c1ccccc1. The data set is classed as biochemical, Hevea brasiliensis. The following applies: pH 5.0 citrate buffer, 25 °C, racemic substrate.
Data set [4] relates to CC(=O)Oc1ccccc1. The conditions noted are these: […] BES pH 7.2, 5% MeCN.
Substrate in data set [5]: CC(=O)Oc1ccc([N+](=O)[O-])cc1
The data set is classed as biochemical, Pseudomonas fluorescens. The conditions noted are these: BES pH 7.2, 25 °C, about 7 vol% acetonitrile.

Substrate in data set [6]: CC(=O)Oc1ccc([N+](=O)[O-])cc1
It counts as biochemical, Nicotiana tabacum. The conditions noted are these: BES pH 7.2, 25 °C, about 7 vol% acetonitrile.

For orientation: Km means the concentration of substrate that gives half-maximal velocity. One may read the kcat as the maximal rate divided by the concentration of active sites. What is called kcat/Km is the second-order rate constant that governs catalysis at low substrate concentration. As for HbHNL (Hevea brasiliensis; E79H), in data set [1], the Km is 190 ± 40 µM, the kcat was 0.00133 ± 6.67e-05 s⁻¹ and the catalytic efficiency (kcat/Km) is 6.83 M⁻¹ s⁻¹.

As to “HbHNL (Hevea brasiliensis; E79H/K236G/T11G)”, the Km in data set [1] turned out to be 160 ± 20 µM; in data set [2], 6500 ± 1000 µM; in data set [3], 3200 ± 900 µM; in data set [4], 2800 ± 400 µM. Also, the kcat in data set [1] was found to be 0.027 ± 0.000833 s⁻¹; in data set [2], 0.0967 ± 0.00833 s⁻¹; in data set [3], 0.135 ± 0.0167 s⁻¹; in data set [4] it was 0.02 ± 0.00167 s⁻¹. Besides, the kcat/Km is 168 M⁻¹ s⁻¹ in data set [1], 14.8 M⁻¹ s⁻¹ in data set [2], 41.7 M⁻¹ s⁻¹ in data set [3] and 6.83 M⁻¹ s⁻¹ in data set [4].

For HbHNL (Hevea brasiliensis; E79H/T11G), in data set [1], the Km turned out to be 140 ± 20 µM, the kcat was found to be 0.00967 ± 0.000333 s⁻¹ and the kcat/Km came to 69.3 M⁻¹ s⁻¹.

With HbHNL (Hevea brasiliensis; K236G/T11G), in data set [1], the Km was 150 ± 20 µM, the kcat was 0.00217 ± 6.67e-05 s⁻¹ and the kcat/Km is 14.3 M⁻¹ s⁻¹.

With HbHNL (Hevea brasiliensis; K236M), in data set [1], the Km came to 580 ± 50 µM, the kcat was 0.0123 ± 0.000333 s⁻¹ and the kcat/Km was 21.2 M⁻¹ s⁻¹.

As for HbHNL (Hevea brasiliensis; T11G), in data set [1], the Km came out at 200 ± 40 µM, the kcat came out at 0.0015 ± 8.33e-05 s⁻¹ and the kcat/Km came to 7.5 M⁻¹ s⁻¹.

B1: PFE (Pseudomonas fluorescens) (protein)
chain: STFVAKDGTQIYFKDWGSGKPVLFSHGWLLDADMWEYQMEYLSSRGYRTIAFDRRGFGRSDQPWTGNDYDTFADDIAQLIEHLDLKEVTLVGFSMGGGDVARYIARHGSARVAGLVLLGAVTPLFGQKPDYPQGVPLDVFARFKTELLKDRAQFISDFNAPFYGINKGQVVSQGVQTQTLQIALLASLKATVDCVTAFAETDFRPDMAKIDVPTLVIHGDGDQIVPFETTGKVAAELIKGAELKVYKDAPHGFAVTHAQQLNEDLLAFLKR
B1: in data set [5], the Michaelis-Menten constant (Km) was 450 µM.

B2: SABP2 (Nicotiana tabacum) (protein)
chain: MKEGKHFVLVHGACHGGWSWYKLKPLLEAAGHKVTALDLAASGTDLRKIEELRTLYDYTLPLMELMESLSADEKVILVGHSLGGMNLGLAMEKYPQKIYAAVFLAAFMPDSVHNSSFVLEQYNERTPAENWLDTQFLPYGSPEEPLTSMFFGPKFLAHKLYQLCSPEDLALASSLVRPSSLFMEDLSKAKYFTDERFGSVKRVYIVCTEDKGIPEEFQRWQIDNIGVTEAIEIKGADHMAMLCEPQKLCASLLEIAHKYN
Turning to B2, in data set [6], the Km came to 1400 ± 100 µM.

The record behind these values is publication PMC4206950 (Chemical science (Royal Society of Chemistry : 2010), 2014).
